Experimental data published in patent publication US20240374671A1 (ACCELERON PHARMA, published 2024).
Residue numbers refer to the chain shown, from its start. Where two headings read alike, the source gives them in different places. Values belong to the binder of their own block, whether it stands above or below them.

What was measured:
[1] = target: T1, human ActRIIB ECD (peptide library) (human, UniProt Q13705 25-130); test: Pepscan peptide library ELISA (linear 15-mers and CLIPS)
T1 construct: also called AcRIIB
T1 sequence: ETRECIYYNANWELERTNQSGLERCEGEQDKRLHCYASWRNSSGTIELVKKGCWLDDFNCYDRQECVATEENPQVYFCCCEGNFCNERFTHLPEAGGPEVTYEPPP
Experimental: Mapping of the ActRIIB and ActRIIA ECD epitopes recognized by the antibodies was performed by Pepscan Presto BV using custom made peptide libraries. Sequences of ECDs of human ActRIIB and ActRIIA were converted into libraries of overlapping linear 15-mers and circularized 15-mer CLIPS using combinatorial matrix design. CLIPS (Chemical Linkage of Peptides onto Scaffolds) technology structurally fixes peptides into defined three-dimensional structures (single, double, triple, etc. loops) creating functional mimics of complex binding sites. Peptides were synthesized on solid support. Binding of antibodies to each of the synthesized peptides was tested by ELISA and binding affinities were quantified. Peptide constructs representing both parts of the discontinuous epitope in the correct conformation bind specific antibody with the highest affinity. […] Each peptide was given a score based on affinity.

dimeric hActRIIA [2] = target: T2, dimeric hActRIIA (human, UniProt P27037 21-138); test: SPR (Biacore), 37 C
T2 construct: also called ActRIIA DIMER; ActRIIA dimer
T2 sequence (P27037 21-138): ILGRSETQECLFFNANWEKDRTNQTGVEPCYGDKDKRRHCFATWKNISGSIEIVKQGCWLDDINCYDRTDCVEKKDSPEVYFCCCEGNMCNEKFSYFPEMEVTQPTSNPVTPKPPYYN

monomeric hActRIIA [3] = target: T3, monomeric hActRIIA (human, UniProt P27037 21-138, limits assumed); test: SPR (Biacore), 37 C
T3 construct: also called ActRIIA MONOMER; ActRIIA monomer
T3 sequence (P27037 21-138 limits assumed): as the sequence (P27037 21-138) above

dimeric hActRIIB [4] = target: T4, dimeric hActRIIB (human, UniProt Q13705 25-130); test: SPR (Biacore), 37 C
T4 construct: also called ActRIIB DIMER; ActRIIB dimer
T4 sequence: T1 sequence

monomeric hActRIIB [5] = target: T5, monomeric hActRIIB (human, UniProt Q13705 25-130, limits assumed); test: SPR (Biacore), 37 C
T5 construct: also called ActRIIB MONOMER; ActRIIB monomer
T5 sequence: T1 sequence

dimeric hActRIIA [6] = target: T2, dimeric hActRIIA; test: SPR (Biacore), 37 C; remark: listed apart in the source
monomeric hActRIIA [7] = target: T3, monomeric hActRIIA; test: SPR (Biacore), 37 C; remark: listed apart in the source
dimeric hActRIIB [8] = target: T4, dimeric hActRIIB; test: SPR (Biacore), 37 C; remark: listed apart in the source
monomeric hActRIIB [9] = target: T5, monomeric hActRIIB; test: SPR (Biacore), 37 C; remark: listed apart in the source
dimeric hActRIIB [10] = target: T4, dimeric hActRIIB; test: SPR (BIACORE), 37 C, series of concentrations (not printed on the sheet)
Experimental: (§1) Kinetic characterization of G02 antibody binding to monomeric and dimeric hActRIIB and hActRIIA was performed using standard BIACORE®-based analysis at 37° C. FIGS. 8A-8D show kinetic characterization of G02 antibody binding to monomeric and dimeric hActRIIB and hActRIIA (FIG. 8A-8D, respectively) as determined by BIACORE®-based analysis at 37° C.

monomeric hActRIIB [11] = target: T5, monomeric hActRIIB; test: as above
Experimental: as §1

dimeric hActRIIA [12] = target: T2, dimeric hActRIIA; test: SPR (Biacore), 37 C; remark: listed apart in the source
Experimental: as §1

monomeric hActRIIA [13] = target: T3, monomeric hActRIIA; test: SPR (Biacore), 37 C; remark: listed apart in the source
Experimental: as §1

B3: F02 (antibody, human IgG1, kappa, V domains shown)
VH: EVQLLESGGGLVQPGGSLRLSCAASGFTFSRYAMSWVRQAPGKGLEWVSGISGSGGATYYADSVKGRFTISRDNSKNTLYLQMNSLRAEDTAVYYCAKDPLSLLLGYFDYWGQGALVTVSS
VL: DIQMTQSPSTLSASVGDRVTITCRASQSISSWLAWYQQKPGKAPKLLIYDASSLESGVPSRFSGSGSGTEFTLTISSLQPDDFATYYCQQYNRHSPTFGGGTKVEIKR
notes: Human IgG; also called F02 variant; F02 optimized antibody
binding result (dimeric hActRIIA [6]): no binding
binding result (monomeric hActRIIA [7]): no binding
Kd (dimeric hActRIIB [8]): 0.738 nM
koff (dimeric hActRIIB [8]): 3.46e-05 s⁻¹
kon (dimeric hActRIIB [8]): 46900 M⁻¹ s⁻¹
Kd (monomeric hActRIIB [9]): 2.63 nM
koff (monomeric hActRIIB [9]): 0.000313 s⁻¹
kon (monomeric hActRIIB [9]): 119000 M⁻¹ s⁻¹

B4: G02 (antibody, human IgG1, kappa, V domains shown)
VH: QVQLQESGPGLVKPSQTLSLTCTVSGGSISSGSYYWSWIRQHPGKGLEWIGYIYYSGSTYYNPSLKSRVTISVDTSKNQFSLKLSSVTAADTAVYYCARGLGMYYHVPFDIWGQGTMVTVSS
VL: EIVLTQSPATLSLSPGERATLSCRASQSVSSYLAWYQQKPGQAPRLLIYDASNRATGIPARFSGSGSGTDFTLTISSLEPEDFAVYYCQQYFHWPPTFGGGTKVEIKR
notes: Human IgG
binding result (dimeric hActRIIB [10]): no binding
binding result (monomeric hActRIIB [11]): no binding
Kd (dimeric hActRIIA [12]): 1.48 nM
koff (dimeric hActRIIA [12]): 0.000275 s⁻¹
kon (dimeric hActRIIA [12]): 186000 M⁻¹ s⁻¹
Kd (monomeric hActRIIA [13]): 58 nM
koff (monomeric hActRIIA [13]): 0.0661 s⁻¹
kon (monomeric hActRIIA [13]): 1.14e+06 M⁻¹ s⁻¹

Now from value to binder:

binding result [1]: binds
B1: I01 (antibody, human IgG4 S228P, kappa, V domains shown)
VH: EVQLLESGGGLVQPGGSLRLSCAASGFTFGSYGMTWVRQAPGKGLEWVSVISGSGGGTYYADSVKGRFTISRDNSKNTLYLQMNSLRAEDTAVYYCAKGPRIVGMDVWGQGTTVTVSS
VL: DIQMTQSPSSVSASVGDRVTITCRASQGISSWLAWYQQKPGKAPKLLIYAASSLQSGVPSRFSGSGSGTDFTLTISSLQPEDFATYYCQQVFSYPLTFGGGTKVEIKR

binding result (dimeric hActRIIA [2]): no binding
binding result (monomeric hActRIIA [3]): no binding
Kd (dimeric hActRIIB [4]): 0.353 nM
koff (dimeric hActRIIB [4]): 0.000127 s⁻¹
kon (dimeric hActRIIB [4]): 358000 M⁻¹ s⁻¹
Kd (monomeric hActRIIB [5]): 11.8 nM
koff (monomeric hActRIIB [5]): 0.023 s⁻¹
kon (monomeric hActRIIB [5]): 1.95e+06 M⁻¹ s⁻¹
B2: H01 (antibody, human IgG1, kappa, V domains shown)
VH: QVQLQESGPGLVKPSETLSLTCAVSGYSISSGVYWMWIRQPPGKGLEWIGSIVHSGHTYYNPSLKSRVTISVDTSKNQFSLKLSSVTAADTAVYYCARAGKYRWHGMDVWGQGTTVTVSS
VL: B1 VL with S53N, V91A, F92P, S93D, Y94L, L96I
notes: Human IgG
